# Molecular target: Human Myelin Basic Protein (Homo sapiens, UniProt P02686)
# Assay: phage display, NGS count
# Settings: not given
# Sequence of Human Myelin Basic Protein (P02686 135-304 limits assumed): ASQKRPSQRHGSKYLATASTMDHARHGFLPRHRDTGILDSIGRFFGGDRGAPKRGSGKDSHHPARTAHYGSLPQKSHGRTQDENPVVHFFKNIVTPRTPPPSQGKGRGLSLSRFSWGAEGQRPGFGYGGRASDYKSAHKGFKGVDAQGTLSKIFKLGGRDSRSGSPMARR
row,Substance,Count
1,HMAGVNQ (peptide),7
2,NGPNSLQ (peptide),6
3,YATATPS (peptide),8
4,SVGLPTK (peptide),6
5,SISKIRT (peptide),7
6,SIRMTEI (peptide),7
7,RVIPSTT (peptide),6
8,HLLKTHS (peptide),7
9,NGVSSSL (peptide),6
10,SYRSMAP (peptide),6
11,GSPYGWG (peptide),6
12,MPLLELP (peptide),7
13,GRHTDVV (peptide),6
14,SLRSVGA (peptide),7
15,AILTRPP (peptide),7
16,QYWDILG (peptide),6
17,VLSPYHN (peptide),6
18,AQFLTIY (peptide),6
19,VVDMSTY (peptide),7
20,LVPPVNH (peptide),6
21,NTSLSFK (peptide),8
22,KIITTKS (peptide),6
23,DSYLLSA (peptide),8
24,ALYNQMT (peptide),6
25,WSLPLLS (peptide),7
26,DSQEKSV (peptide),6
27,VRGTPNH (peptide),6
28,ALGTRPL (peptide),7
29,TGSVSKQ (peptide),6

# Molecular target: Human Myelin PLP (human) (UniProt P60201)
# Assay: phage display, NGS count
# Settings: not given
# Sequence of Human Myelin PLP (human) (P60201 2-277 limits assumed): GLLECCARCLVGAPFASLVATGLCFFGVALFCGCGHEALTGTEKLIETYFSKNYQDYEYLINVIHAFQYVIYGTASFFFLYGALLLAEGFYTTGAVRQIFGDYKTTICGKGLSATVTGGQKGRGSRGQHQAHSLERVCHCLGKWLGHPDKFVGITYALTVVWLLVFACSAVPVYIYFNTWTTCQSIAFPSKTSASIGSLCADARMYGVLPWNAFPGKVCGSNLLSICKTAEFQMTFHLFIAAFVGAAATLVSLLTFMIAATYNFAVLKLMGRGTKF
row,Substance,Count
1,SVLPDKL (peptide),28
2,WSPHGYK (peptide),27
3,LPSHASI (peptide),26
4,EVLYPNN (peptide),27
5,TDVEMVP (peptide),40
6,YSSRLTA (peptide),29
7,SVVYQNS (peptide),26
8,SGVATYT (peptide),31
9,NVFSATP (peptide),31
10,TGISSTP (peptide),27
11,SWDVLEL (peptide),31
12,LPVKNLL (peptide),26
13,TRASYPQ (peptide),32
14,YSQAISA (peptide),27
15,DGSRDLV (peptide),30
16,WNTADRL (peptide),34
17,TFPERLR (peptide),31
18,IDRVRGL (peptide),29
19,LNGISAL (peptide),32
20,TQPRYPS (peptide),28
21,KPSASIY (peptide),26

row,Substance,Count
1,VGYRSAS (peptide),28
2,SAQSRSF (peptide),26
3,SALISTR (peptide),32
4,EKSTTVA (peptide),30
5,QLPRNNL (peptide),28
6,GIPSSKN (peptide),28
7,LHQTYRP (peptide),27
8,VTGPGTP (peptide),26
9,GPAAVII (peptide),29
10,NIPSSIL (peptide),33
11,MKIMPMD (peptide),26
12,SLPSLLP (peptide),26
13,HLHTRPT (peptide),27
14,ARFVPLT (peptide),30
15,GKSYSQI (peptide),31
16,VPGHISG (peptide),27
17,FSLDRDG (peptide),29
18,ASLTLAL (peptide),26
19,TLWAQKT (peptide),28
20,YSDTYKH (peptide),30
21,IHHLESS (peptide),32

row,Substance,Count
1,AQASSAR (peptide),27
2,DRHEGHR (peptide),26
3,QRRSVIL (peptide),31
4,SVEKYSK (peptide),33
5,TKITPHR (peptide),29
6,IIPPTSV (peptide),31
7,AVVAMNK (peptide),28
8,YTWTPSR (peptide),28
9,GWSTAIR (peptide),29
10,VFPERRV (peptide),28
11,VSASWMP (peptide),27
12,IRPTHNG (peptide),27
13,VSSQEQA (peptide),34
14,LPHRLNP (peptide),27
15,FRIDKSM (peptide),26
16,ALFQERK (peptide),27
17,QPNMLKP (peptide),33
18,VRTSMNH (peptide),28
19,TTTIADM (peptide),26
20,GHLQSLF (peptide),26
21,GLWGPSL (peptide),26

row,Substance,Count
1,NDASTVS (peptide),28
2,RLQPEPT (peptide),33
3,TMPIKAM (peptide),27
4,GNVFQTS (peptide),31
5,SLPGYRH (peptide),28
6,VTPNKAR (peptide),26
7,KGVIPAT (peptide),27
8,SLNRGGA (peptide),28
9,SVMWMTP (peptide),29
10,SGLHYAL (peptide),32
11,GSAWKKH (peptide),44
12,FSTPTNV (peptide),29
13,WHYTPSM (peptide),26
14,LMQKPSI (peptide),29
15,LPLRLHA (peptide),31
16,AHQSSVT (peptide),42
17,WSRISVD (peptide),26
18,MPHAPVQ (peptide),37
19,WSPHRSF (peptide),31
20,EPSSFTF (peptide),31
21,HKAPLGT (peptide),29

# System: Human MPZ
# Assay: Phage display library screening (Example 2, Python script analysis), binding to Human MPZ
# Settings: combined unique sequence count, Python/R script analysis
# Protocol: Phage display library screens were used to identify peptides that bind to target proteins (including specific laminin trimers) that are expressed in human nerves, as described in Table 3. These screens were also carried out to identify peptides that could bind selectively to nerves versus muscle. Such peptides could therefore be useful for systemic in-vivo labeling of nerves during fluorescence assisted surgery. Specifically, m 13 phage libraries expressing 7 or 12 random amino acid peptides, or a cyclic peptide CX7C, on the N-terminus of the minor coat protein pIII (New England Biolabs; NEB) were processed through multiple rounds of selection for binding to target proteins expressed in nerves, or to excised human nerves, nerve extracts, or muscle, as described further below.
# For screening against the specified target proteins in Table 1, including LN211, LN411, LN421, and LN521, the phage library was processed by up to 4 binding and wash cycles. For selection, phage libraries were incubated for up to 24 hours at 4° C. in 96 well plates that had been coated with one of the target proteins. Plates were then washed with PBS and phage were eluted using 0.2M glycine pH 2.0. Phage supernatants where then neutralized with Tris pH 9.0 prior to plating on TGI bacteria and LB agar plates. Colonies were counted to determine titer followed by DNA preparation of pools of phage and NextGen sequencing. After rounds of selection, phage were pooled and amplified for iterative selection. Phage that were bound at each round were sequenced. NextGen sequencing of pools after 2, 3 and 4 rounds of selection was used to isolate candidate sequences that were analyzed further to identify those that specifically bound each unique target protein.
# Python Script Analysis: For all NEB sequence datasets, a python script was used to translate, trim, and filter the peptide sequences. The script translated the nucleotide sequences, translating amber codons as glutamine in peptide sequences, and then trimmed the end sequences that come from the vector. Secondly, the script combined the unique counts of trimmed peptides with identical sequences. […] Another python script was used to group peptides from different assays according to protein target (Myelin Protein Zero, Myelin Proteolipid Protein, Myelin Basic Protein, and Nidogen-2) and also combine the unique sequence counts for each peptide. An R script was written to merge the peptide sequences from different data files and determine peptides specific for each protein target but absent from different protein binding datasets. Peptide sequences were ranked by unique sequence count.
# Sequence of Human MPZ (P25189 30-153 limits assumed): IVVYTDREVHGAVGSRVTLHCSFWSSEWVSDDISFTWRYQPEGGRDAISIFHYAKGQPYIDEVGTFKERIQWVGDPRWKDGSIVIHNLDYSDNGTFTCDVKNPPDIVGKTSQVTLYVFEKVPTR
row,Substance,Count
1,WPRPIQI (Human MPZ-binding peptide),41
2,GSWSSGF (Human MPZ-binding peptide),52
3,KRNLWDI (Human MPZ-binding peptide),40
4,IEQVGWR (Human MPZ-binding peptide),38
5,WMTNLDP (Human MPZ-binding peptide),43
6,YTPNWHFRWMPA (Human MPZ-binding peptide),60
7,LPAESHW (Human MPZ-binding peptide),45
8,CERIGPREC (Human MPZ-binding peptide),39
9,HHPLFID (Human MPZ-binding peptide),39
10,CPDAARNSC (Human MPZ-binding peptide),43
11,YAPWRVF (Human MPZ-binding peptide),37
12,TTWPNTA (Human MPZ-binding peptide),45
13,MIHTRQT (Human MPZ-binding peptide),41
14,GEWRARIDQDVS (Human MPZ-binding peptide),65
15,YPQARTS (Human MPZ-binding peptide),46
16,HPLMVPS (Human MPZ-binding peptide),41
17,NPISPRN (Human MPZ-binding peptide),38
18,CRVGVTSAC (Human MPZ-binding peptide),41
19,GMVSPHHSVYRH (Human MPZ-binding peptide),51

row,Substance,Count
1,STHEWRT (Human MPZ-binding peptide),45
2,QIAHLEY (Human MPZ-binding peptide),50
3,CLKQQTGDC (Human MPZ-binding peptide),37
4,YMKHSPG (Human MPZ-binding peptide),45
5,NASVPPK (Human MPZ-binding peptide),42
6,KQPAMEN,37
7,ISSVTVV (Human MPZ-binding peptide),37
8,TTNVTEIERESY (Human MPZ-binding peptide),37
9,SVAYVPV (Human MPZ-binding peptide),46
10,NGAYSLAIRYTS (Human MPZ-binding peptide),53
11,CQKWFTFAC (Human MPZ-binding peptide),39
12,NTASMTT (Human MPZ-binding peptide),38
13,YSSLTSN (Human MPZ-binding peptide),38
14,CIKGEDNQC (Human MPZ-binding peptide),38
15,KTPILAS (Human MPZ-binding peptide),38
16,LPNANNL (Human MPZ-binding peptide),41
17,LVNPFPE (Human MPZ-binding peptide),39
18,TTLVVTA (Human MPZ-binding peptide),42

# From patent US20240207421A1, “NERVE TARGETING PEPTIDES AND METHODS OF USE” (ALUME BIOSCIENCES, INC., priority 2020, published 2024)
